# Literature values as cited in US20250302913A1, “LACRIPEP PROMOTES NEUROREGENERATION AND MAINTAINS EPITHELIAL PROGENITOR CELL IDENTITY” (The Regents of The University of California, priority 2022, published 2025).
# T1: syndecan-1 (SDC1) (Homo sapiens, UniProt P18827)
# T1 sequence (P18827 23-310): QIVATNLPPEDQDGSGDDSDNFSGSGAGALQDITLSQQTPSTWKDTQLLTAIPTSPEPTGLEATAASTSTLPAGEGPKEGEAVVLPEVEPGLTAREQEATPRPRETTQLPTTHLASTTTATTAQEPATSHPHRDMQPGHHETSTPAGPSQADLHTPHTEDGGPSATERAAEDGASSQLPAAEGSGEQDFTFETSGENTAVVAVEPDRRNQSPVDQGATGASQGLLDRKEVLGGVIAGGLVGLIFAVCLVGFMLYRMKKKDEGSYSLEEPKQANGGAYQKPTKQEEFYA
# B1: Lacritin: endogenous glycoprotein initially identified in tears (protein, listed as Homo sapiens)
# chain: MKFTTLLFLAAVAGALVYAEDASSDSTGADPAQEAGTSKPNEEISGPAEPASPPETTTTAQETSAAAVQGTAKVTSSRQELNPLKSIVEKSILLTEQALAKAGKGMHGGVPGGKQFIENGSEFAQKLLKKFSLLKPWA
# modifications: Description of sequence: Lacritin
# notes: endogenous glycoprotein initially identified in tears
# Assays:
# human patients = conditions: controlled clinical studies; cited from earlier work
# rabbit corneas = conditions: after refractive surgery; cited from earlier work
# healthy rabbit model = conditions: cited from earlier work
# corneal epithelial cell = conditions: in vitro; cited from earlier work
# syndecan-1 (SDC1) = target: T1, syndecan-1 (SDC1); conditions: cited from earlier work
Molecule,corneal sensitivity or visual acuity versus vehicle (artificial tears) (human patients),reinnervation of corneas (rabbit corneas),basal tearing (healthy rabbit model),corneal epithelial cell proliferation (corneal epithelial cell),binding and activation of syndecan-1 (syndecan-1 (SDC1))
cenegermin: recombinant nerve growth factor,failed to show significant benefit over vehicle,stimulated the reinnervation of rabbit corneas,,,
B1,,,promote basal tearing,promote corneal epithelial cell proliferation,bind and activate
